From the supplement of paper PMC11908140

B1: library; numbered along this chain (parent)
chain: MRKPRAAVGSGHRKQAASQEGRQKHAKNNSQAKPSACDGLARQPEEVVLQASVSSYHLFRDVAEVTAFRGSLLSWYDQEKRDLPWRRRAEDEMDLDRRAYAVWVSEVMLQQTQVATVINYYTGWMQKWPTLQDLASASLEEVNQLWAGLGYYSRGRRLQEGARKVVEELGGHMPRTAETLQQLLPGVGRYTAGAIASIAFGQATGVVDGNVARVLCRVRAIGADPSSTLVSQQLWGLAQQLVDPARPGDFNQAAMELGATVCTPQRPLCSQCPVESLCRARQRVEQEQLLASGSLSGSPDVEECAPNTGQCHLCLPPSEPWDQTLGVVNFPRKASRKPPREESSATCVLEQPGALGAQILLVQRPNSGLLAGLWEFPSVTWEPSEQLQRKALLQELQRWAGPLPATHLRHLGEVVHTFSHIKLTYQVYGLALEGQTPVTTVPPGARWLTQEEFHTAAVSTAMKKVFRVYQGQQPGTCMGSKRSQVSSPCSRKKPRMGQQVLDNFFRSHISTDAHSLNSAAQ

Variants of: B1
Experiment: 8OG:A repair function score (normalized; synonymous = 0, nonsense = -1) (normalized log-likelihood score); higher = more repair activity (WT-like)
Details: with 8OG:A DNA repair reporter (GFP) in HEK-293 MUTYH KO cells
In short: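 After 72 h, viable mCherry+ cells were split into GFP+ (repair) and GFP− bins in three replicates per tile. These cells were MUTYH knockout HEK-293 cells holding lentiviral MUTYH cDNA NNN codon-scan libraries, kept in 10 pg/ml doxycycline and co-transfected with mCherry plus an 8OG:A GFP repair reporter. Sequencing of tile amplicons gave per-tile Rosace fitness scores, normalized into a repair function score anchored on synonymous and nonsense distributions. Synonymous medians were fixed at 0, nonsense at -1, and variants under 300 counts per million at the start were removed.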
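Note: cells sorted at 72 h after reporter transfection.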

Row | Variant | 8OG:A repair function score
1 | MRKPRAAVGSGHRKQAASQEGRQKHAKNNSQAKPSACDGLARQPEEVVLQASVSSYHLFRDVAEVTAFRGSLLSWYDQEKRDLPWRRRAEDEMDLDRRAYAVWVSEVMLQQTQVATVINYYTGWMQKWPTLQDLASASLEEVNQLWAGLGYYSRGRRLQEGARKVVEELGGHMPRTAETLQQLLPGVGRYTAGAIASIAFGQATGVVDGNVARVLCRVRAIGADPSSTLVSQQLWGLAQQLVDPARPGDFNQAAMELGATVCTPQRPLCSQCPVESLCRARQRVEQEQLLASGSLSGSPDVEECAPNTGQCHLCLPPSEPWDQTLGVVNFPRKASRKPPREESSATCVLEQPGALGAQILLVQRPNSGLLAGLWEFPSVTWEPSEQLQRKALLQELQRWAGPLPATHLRHLGEVVHTFQHIKLTYQVYGLALEGQTPVTTVPPGARWLTQEEFHTAAVSTAMKKVFRVYQGQQPGTCMGSKRSQVSSPCSRKKPRMGQQVLDNFFRSHISTDAHSLNSAAQ [S419Q] | -0.333
2 | MRKPRAAVGSGHRKQAASQEGRQKHAKNNSQAKPSACDGLARQPEEVVLQASVSSYHLFRDVAEVTAFRGSLLSWYDQEKRDLPWRRRAEDEMDLDRRAYAVWVSEVMLQQTQVATVINYYTGWMQKWPTLQDLASASLEEVNQLWAGLGYYSRGRRLQEGARKVVEELGGHMPRTAETLQQLLPGVGRYTAGAIASIAFGQATGVVDGNVARVLCRVRAIGADPSSTLVSQQLWGLAQQLVDPARPGDFNQAAMELGATVCTPQRPLCSQCPVESLCRARQRVEQEQLLASGSLSGSPDVEECAPNTGQCHLCLPPSEPWDQTLGVVNFPRKASRKPPREESSATCVLEQPGALGAQILLVQRPNSGLLAGLWEFPSVTWEPSEQLQRKALLQELQRWAGPLPATHLRHLGEVVHTFNHIKLTYQVYGLALEGQTPVTTVPPGARWLTQEEFHTAAVSTAMKKVFRVYQGQQPGTCMGSKRSQVSSPCSRKKPRMGQQVLDNFFRSHISTDAHSLNSAAQ [S419N] | -0.269
3 | MRKPRAAVGSGHRKQAASQEGRQKHAKNNSQAKPSACDGLARQPEEVVLQASVSSYHLFRDVAEVTAFRGSLLSWYDQEKRDLPWRRRAEDEMDLDRRAYAVWVSEVMLQQTQVATVINYYTGWMQKWPTLQDLASASLEEVNQLWAGLGYYSRGRRLQEGARKVVEELGGHMPRTAETLQQLLPGVGRYTAGAIASIAFGQATGVVDGNVARVLCRVRAIGADPSSTLVSQQLWGLAQQLVDPARPGDFNQAAMELGATVCTPQRPLCSQCPVESLCRARQRVEQEQLLASGSLSGSPDVEECAPNTGQCHLCLPPSEPWDQTLGVVNFPRKASRKPPREESSATCVLEQPGALGAQILLVQRPNSGLLAGLWEFPSVTWEPSEQLQRKALLQELQRWAGPLPATHLRHLGEVVHTFTHIKLTYQVYGLALEGQTPVTTVPPGARWLTQEEFHTAAVSTAMKKVFRVYQGQQPGTCMGSKRSQVSSPCSRKKPRMGQQVLDNFFRSHISTDAHSLNSAAQ [S419T] | -0.177
4 | MRKPRAAVGSGHRKQAASQEGRQKHAKNNSQAKPSACDGLARQPEEVVLQASVSSYHLFRDVAEVTAFRGSLLSWYDQEKRDLPWRRRAEDEMDLDRRAYAVWVSEVMLQQTQVATVINYYTGWMQKWPTLQDLASASLEEVNQLWAGLGYYSRGRRLQEGARKVVEELGGHMPRTAETLQQLLPGVGRYTAGAIASIAFGQATGVVDGNVARVLCRVRAIGADPSSTLVSQQLWGLAQQLVDPARPGDFNQAAMELGATVCTPQRPLCSQCPVESLCRARQRVEQEQLLASGSLSGSPDVEECAPNTGQCHLCLPPSEPWDQTLGVVNFPRKASRKPPREESSATCVLEQPGALGAQILLVQRPNSGLLAGLWEFPSVTWEPSEQLQRKALLQELQRWAGPLPATHLRHLGEVVHTFVHIKLTYQVYGLALEGQTPVTTVPPGARWLTQEEFHTAAVSTAMKKVFRVYQGQQPGTCMGSKRSQVSSPCSRKKPRMGQQVLDNFFRSHISTDAHSLNSAAQ [S419V] | -0.259
5 | MRKPRAAVGSGHRKQAASQEGRQKHAKNNSQAKPSACDGLARQPEEVVLQASVSSYHLFRDVAEVTAFRGSLLSWYDQEKRDLPWRRRAEDEMDLDRRAYAVWVSEVMLQQTQVATVINYYTGWMQKWPTLQDLASASLEEVNQLWAGLGYYSRGRRLQEGARKVVEELGGHMPRTAETLQQLLPGVGRYTAGAIASIAFGQATGVVDGNVARVLCRVRAIGADPSSTLVSQQLWGLAQQLVDPARPGDFNQAAMELGATVCTPQRPLCSQCPVESLCRARQRVEQEQLLASGSLSGSPDVEECAPNTGQCHLCLPPSEPWDQTLGVVNFPRKASRKPPREESSATCVLEQPGALGAQILLVQRPNSGLLAGLWEFPSVTWEPSEQLQRKALLQELQRWAGPLPATHLRHLGEVVHTFRHIKLTYQVYGLALEGQTPVTTVPPGARWLTQEEFHTAAVSTAMKKVFRVYQGQQPGTCMGSKRSQVSSPCSRKKPRMGQQVLDNFFRSHISTDAHSLNSAAQ [S419R] | -0.334
6 | MRKPRAAVGSGHRKQAASQEGRQKHAKNNSQAKPSACDGLARQPEEVVLQASVSSYHLFRDVAEVTAFRGSLLSWYDQEKRDLPWRRRAEDEMDLDRRAYAVWVSEVMLQQTQVATVINYYTGWMQKWPTLQDLASASLEEVNQLWAGLGYYSRGRRLQEGARKVVEELGGHMPRTAETLQQLLPGVGRYTAGAIASIAFGQATGVVDGNVARVLCRVRAIGADPSSTLVSQQLWGLAQQLVDPARPGDFNQAAMELGATVCTPQRPLCSQCPVESLCRARQRVEQEQLLASGSLSGSPDVEECAPNTGQCHLCLPPSEPWDQTLGVVNFPRKASRKPPREESSATCVLEQPGALGAQILLVQRPNSGLLAGLWEFPSVTWEPSEQLQRKALLQELQRWAGPLPATHLRHLGEVVHTFYHIKLTYQVYGLALEGQTPVTTVPPGARWLTQEEFHTAAVSTAMKKVFRVYQGQQPGTCMGSKRSQVSSPCSRKKPRMGQQVLDNFFRSHISTDAHSLNSAAQ [S419Y] | -0.503
7 | MRKPRAAVGSGHRKQAASQEGRQKHAKNNSQAKPSACDGLARQPEEVVLQASVSSYHLFRDVAEVTAFRGSLLSWYDQEKRDLPWRRRAEDEMDLDRRAYAVWVSEVMLQQTQVATVINYYTGWMQKWPTLQDLASASLEEVNQLWAGLGYYSRGRRLQEGARKVVEELGGHMPRTAETLQQLLPGVGRYTAGAIASIAFGQATGVVDGNVARVLCRVRAIGADPSSTLVSQQLWGLAQQLVDPARPGDFNQAAMELGATVCTPQRPLCSQCPVESLCRARQRVEQEQLLASGSLSGSPDVEECAPNTGQCHLCLPPSEPWDQTLGVVNFPRKASRKPPREESSATCVLEQPGALGAQILLVQRPNSGLLAGLWEFPSVTWEPSEQLQRKALLQELQRWAGPLPATHLRHLGEVVHTFWHIKLTYQVYGLALEGQTPVTTVPPGARWLTQEEFHTAAVSTAMKKVFRVYQGQQPGTCMGSKRSQVSSPCSRKKPRMGQQVLDNFFRSHISTDAHSLNSAAQ [S419W] | -0.75
8 | MRKPRAAVGSGHRKQAASQEGRQKHAKNNSQAKPSACDGLARQPEEVVLQASVSSYHLFRDVAEVTAFRGSLLSWYDQEKRDLPWRRRAEDEMDLDRRAYAVWVSEVMLQQTQVATVINYYTGWMQKWPTLQDLASASLEEVNQLWAGLGYYSRGRRLQEGARKVVEELGGHMPRTAETLQQLLPGVGRYTAGAIASIAFGQATGVVDGNVARVLCRVRAIGADPSSTLVSQQLWGLAQQLVDPARPGDFNQAAMELGATVCTPQRPLCSQCPVESLCRARQRVEQEQLLASGSLSGSPDVEECAPNTGQCHLCLPPSEPWDQTLGVVNFPRKASRKPPREESSATCVLEQPGALGAQILLVQRPNSGLLAGLWEFPSVTWEPSEQLQRKALLQELQRWAGPLPATHLRHLGEVVHTFPHIKLTYQVYGLALEGQTPVTTVPPGARWLTQEEFHTAAVSTAMKKVFRVYQGQQPGTCMGSKRSQVSSPCSRKKPRMGQQVLDNFFRSHISTDAHSLNSAAQ [S419P] | -0.574
9 | MRKPRAAVGSGHRKQAASQEGRQKHAKNNSQAKPSACDGLARQPEEVVLQASVSSYHLFRDVAEVTAFRGSLLSWYDQEKRDLPWRRRAEDEMDLDRRAYAVWVSEVMLQQTQVATVINYYTGWMQKWPTLQDLASASLEEVNQLWAGLGYYSRGRRLQEGARKVVEELGGHMPRTAETLQQLLPGVGRYTAGAIASIAFGQATGVVDGNVARVLCRVRAIGADPSSTLVSQQLWGLAQQLVDPARPGDFNQAAMELGATVCTPQRPLCSQCPVESLCRARQRVEQEQLLASGSLSGSPDVEECAPNTGQCHLCLPPSEPWDQTLGVVNFPRKASRKPPREESSATCVLEQPGALGAQILLVQRPNSGLLAGLWEFPSVTWEPSEQLQRKALLQELQRWAGPLPATHLRHLGEVVHTFSEIKLTYQVYGLALEGQTPVTTVPPGARWLTQEEFHTAAVSTAMKKVFRVYQGQQPGTCMGSKRSQVSSPCSRKKPRMGQQVLDNFFRSHISTDAHSLNSAAQ [H420E] | -0.781
10 | MRKPRAAVGSGHRKQAASQEGRQKHAKNNSQAKPSACDGLARQPEEVVLQASVSSYHLFRDVAEVTAFRGSLLSWYDQEKRDLPWRRRAEDEMDLDRRAYAVWVSEVMLQQTQVATVINYYTGWMQKWPTLQDLASASLEEVNQLWAGLGYYSRGRRLQEGARKVVEELGGHMPRTAETLQQLLPGVGRYTAGAIASIAFGQATGVVDGNVARVLCRVRAIGADPSSTLVSQQLWGLAQQLVDPARPGDFNQAAMELGATVCTPQRPLCSQCPVESLCRARQRVEQEQLLASGSLSGSPDVEECAPNTGQCHLCLPPSEPWDQTLGVVNFPRKASRKPPREESSATCVLEQPGALGAQILLVQRPNSGLLAGLWEFPSVTWEPSEQLQRKALLQELQRWAGPLPATHLRHLGEVVHTFSCIKLTYQVYGLALEGQTPVTTVPPGARWLTQEEFHTAAVSTAMKKVFRVYQGQQPGTCMGSKRSQVSSPCSRKKPRMGQQVLDNFFRSHISTDAHSLNSAAQ [H420C] | -0.465
11 | MRKPRAAVGSGHRKQAASQEGRQKHAKNNSQAKPSACDGLARQPEEVVLQASVSSYHLFRDVAEVTAFRGSLLSWYDQEKRDLPWRRRAEDEMDLDRRAYAVWVSEVMLQQTQVATVINYYTGWMQKWPTLQDLASASLEEVNQLWAGLGYYSRGRRLQEGARKVVEELGGHMPRTAETLQQLLPGVGRYTAGAIASIAFGQATGVVDGNVARVLCRVRAIGADPSSTLVSQQLWGLAQQLVDPARPGDFNQAAMELGATVCTPQRPLCSQCPVESLCRARQRVEQEQLLASGSLSGSPDVEECAPNTGQCHLCLPPSEPWDQTLGVVNFPRKASRKPPREESSATCVLEQPGALGAQILLVQRPNSGLLAGLWEFPSVTWEPSEQLQRKALLQELQRWAGPLPATHLRHLGEVVHTFSAIKLTYQVYGLALEGQTPVTTVPPGARWLTQEEFHTAAVSTAMKKVFRVYQGQQPGTCMGSKRSQVSSPCSRKKPRMGQQVLDNFFRSHISTDAHSLNSAAQ [H420A] | -0.146
12 | MRKPRAAVGSGHRKQAASQEGRQKHAKNNSQAKPSACDGLARQPEEVVLQASVSSYHLFRDVAEVTAFRGSLLSWYDQEKRDLPWRRRAEDEMDLDRRAYAVWVSEVMLQQTQVATVINYYTGWMQKWPTLQDLASASLEEVNQLWAGLGYYSRGRRLQEGARKVVEELGGHMPRTAETLQQLLPGVGRYTAGAIASIAFGQATGVVDGNVARVLCRVRAIGADPSSTLVSQQLWGLAQQLVDPARPGDFNQAAMELGATVCTPQRPLCSQCPVESLCRARQRVEQEQLLASGSLSGSPDVEECAPNTGQCHLCLPPSEPWDQTLGVVNFPRKASRKPPREESSATCVLEQPGALGAQILLVQRPNSGLLAGLWEFPSVTWEPSEQLQRKALLQELQRWAGPLPATHLRHLGEVVHTFSDIKLTYQVYGLALEGQTPVTTVPPGARWLTQEEFHTAAVSTAMKKVFRVYQGQQPGTCMGSKRSQVSSPCSRKKPRMGQQVLDNFFRSHISTDAHSLNSAAQ [H420D] | -0.651
